Assay results taken from patent US20160200782A1 (MOERAE MATRIX, published 2016).
One block for each binder: values may come before it.

What was measured:
Assay in all cases: cell-based or functional assay
CLK3(h) = CLK3(h) (human, UniProt P49761 1-490, limits assumed)
Met(Y1248H)(h) = Met(Y1248H)(h) (human, UniProt P08581-2 974-1408, limits assumed)
Lck(h) activated = Lck(h) activated (human, UniProt P06239 1-509, limits assumed)
KDR(h) = KDR(h) (human, UniProt P35968 790-1356, limits assumed)
mTOR/FKBP12(h) = mTOR/FKBP12(h) (human, UniProt P42345 1362-2549; P62942 1-108)
PAK2(h) = PAK2(h) (human, UniProt Q13177 1-524, limits assumed)
PAK2(h), sequence (Q13177 whole entry): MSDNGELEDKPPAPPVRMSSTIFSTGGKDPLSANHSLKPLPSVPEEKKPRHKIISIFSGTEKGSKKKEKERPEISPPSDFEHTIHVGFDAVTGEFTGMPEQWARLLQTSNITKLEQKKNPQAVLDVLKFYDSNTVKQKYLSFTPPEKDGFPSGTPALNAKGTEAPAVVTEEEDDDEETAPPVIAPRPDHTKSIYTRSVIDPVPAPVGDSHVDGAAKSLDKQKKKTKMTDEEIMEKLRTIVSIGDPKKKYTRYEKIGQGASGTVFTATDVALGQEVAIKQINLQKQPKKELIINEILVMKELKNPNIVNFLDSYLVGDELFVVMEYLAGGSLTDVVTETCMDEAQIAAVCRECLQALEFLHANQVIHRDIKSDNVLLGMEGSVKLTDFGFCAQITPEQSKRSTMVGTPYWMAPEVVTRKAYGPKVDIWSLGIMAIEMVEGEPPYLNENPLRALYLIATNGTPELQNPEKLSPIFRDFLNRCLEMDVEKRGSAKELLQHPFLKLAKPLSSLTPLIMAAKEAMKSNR

FAK(h) = FAK(h) (human, UniProt Q05397 1-1052, limits assumed)
FAK(h), sequence (Q05397 whole entry): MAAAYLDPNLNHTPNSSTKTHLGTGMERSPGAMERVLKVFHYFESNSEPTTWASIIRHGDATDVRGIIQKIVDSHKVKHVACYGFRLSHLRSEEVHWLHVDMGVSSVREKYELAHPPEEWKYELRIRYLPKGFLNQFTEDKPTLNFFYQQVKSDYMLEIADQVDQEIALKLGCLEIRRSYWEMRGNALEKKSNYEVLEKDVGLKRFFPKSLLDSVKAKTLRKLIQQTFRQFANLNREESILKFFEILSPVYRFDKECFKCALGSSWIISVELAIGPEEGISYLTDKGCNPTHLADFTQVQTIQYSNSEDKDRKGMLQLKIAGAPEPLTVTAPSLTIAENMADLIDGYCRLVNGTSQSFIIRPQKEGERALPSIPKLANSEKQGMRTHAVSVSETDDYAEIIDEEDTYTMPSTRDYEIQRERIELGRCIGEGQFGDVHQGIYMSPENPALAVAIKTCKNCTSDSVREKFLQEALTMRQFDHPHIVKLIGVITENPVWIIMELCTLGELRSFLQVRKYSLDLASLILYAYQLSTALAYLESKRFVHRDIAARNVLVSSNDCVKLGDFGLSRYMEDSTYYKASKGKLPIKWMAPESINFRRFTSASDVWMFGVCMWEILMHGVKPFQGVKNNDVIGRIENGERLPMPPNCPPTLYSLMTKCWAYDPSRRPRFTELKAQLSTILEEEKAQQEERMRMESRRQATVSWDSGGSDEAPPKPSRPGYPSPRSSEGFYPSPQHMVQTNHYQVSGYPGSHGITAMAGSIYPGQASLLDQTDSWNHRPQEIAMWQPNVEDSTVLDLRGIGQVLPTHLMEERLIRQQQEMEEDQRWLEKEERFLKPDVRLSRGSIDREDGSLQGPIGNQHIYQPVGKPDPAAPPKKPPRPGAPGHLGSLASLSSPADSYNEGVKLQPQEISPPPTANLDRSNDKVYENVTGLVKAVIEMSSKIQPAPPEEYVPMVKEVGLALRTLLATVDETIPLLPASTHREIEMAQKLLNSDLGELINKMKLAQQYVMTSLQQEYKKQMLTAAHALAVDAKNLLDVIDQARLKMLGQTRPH

ARK5(h) = biological target: T1, ARK5(h) (human, UniProt O60285 1-661, limits assumed)
T1 sequence (looked up): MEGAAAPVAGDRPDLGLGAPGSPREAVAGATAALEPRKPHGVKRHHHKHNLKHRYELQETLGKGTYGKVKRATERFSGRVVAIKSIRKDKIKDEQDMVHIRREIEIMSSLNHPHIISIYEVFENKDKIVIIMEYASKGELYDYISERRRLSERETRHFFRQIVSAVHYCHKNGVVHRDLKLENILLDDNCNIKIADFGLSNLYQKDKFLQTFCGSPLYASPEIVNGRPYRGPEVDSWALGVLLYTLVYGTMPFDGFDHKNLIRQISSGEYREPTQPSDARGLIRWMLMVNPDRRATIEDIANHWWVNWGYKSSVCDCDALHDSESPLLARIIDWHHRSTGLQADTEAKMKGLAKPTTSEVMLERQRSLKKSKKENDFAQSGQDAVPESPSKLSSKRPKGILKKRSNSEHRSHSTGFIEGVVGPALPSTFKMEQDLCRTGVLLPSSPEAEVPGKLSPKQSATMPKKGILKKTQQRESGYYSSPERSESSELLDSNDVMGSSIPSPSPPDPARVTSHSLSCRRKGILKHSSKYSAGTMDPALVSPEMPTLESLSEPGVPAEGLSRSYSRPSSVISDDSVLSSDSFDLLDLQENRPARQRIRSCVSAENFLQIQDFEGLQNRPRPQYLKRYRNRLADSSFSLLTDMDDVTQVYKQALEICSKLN

GCK(h) = biological target: T2, GCK(h) (human, UniProt Q12851 1-820, limits assumed)
T2 sequence (looked up): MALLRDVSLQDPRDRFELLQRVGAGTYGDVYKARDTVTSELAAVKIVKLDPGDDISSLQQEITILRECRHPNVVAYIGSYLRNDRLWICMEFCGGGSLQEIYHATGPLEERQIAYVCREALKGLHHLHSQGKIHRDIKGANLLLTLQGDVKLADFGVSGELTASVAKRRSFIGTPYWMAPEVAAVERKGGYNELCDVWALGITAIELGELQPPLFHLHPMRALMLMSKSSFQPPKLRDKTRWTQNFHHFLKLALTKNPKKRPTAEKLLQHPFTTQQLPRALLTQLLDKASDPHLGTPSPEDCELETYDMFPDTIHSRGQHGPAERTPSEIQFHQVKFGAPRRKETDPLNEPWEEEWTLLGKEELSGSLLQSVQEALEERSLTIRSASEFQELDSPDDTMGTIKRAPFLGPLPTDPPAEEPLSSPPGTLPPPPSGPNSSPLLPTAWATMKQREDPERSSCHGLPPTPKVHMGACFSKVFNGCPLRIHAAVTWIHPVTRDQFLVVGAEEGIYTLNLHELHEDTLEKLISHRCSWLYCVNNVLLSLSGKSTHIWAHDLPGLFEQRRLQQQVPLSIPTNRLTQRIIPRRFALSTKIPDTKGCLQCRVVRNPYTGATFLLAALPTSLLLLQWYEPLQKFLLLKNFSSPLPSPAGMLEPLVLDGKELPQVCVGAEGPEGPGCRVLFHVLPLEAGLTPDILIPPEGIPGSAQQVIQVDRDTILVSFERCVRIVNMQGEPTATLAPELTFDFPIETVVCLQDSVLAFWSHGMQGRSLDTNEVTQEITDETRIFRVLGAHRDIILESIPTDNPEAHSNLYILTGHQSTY

Ret(V804M)(h) = biological target: T3, Ret(V804M)(h) (human, UniProt P07949 658-1114, limits assumed)
T3 sequence (looked up): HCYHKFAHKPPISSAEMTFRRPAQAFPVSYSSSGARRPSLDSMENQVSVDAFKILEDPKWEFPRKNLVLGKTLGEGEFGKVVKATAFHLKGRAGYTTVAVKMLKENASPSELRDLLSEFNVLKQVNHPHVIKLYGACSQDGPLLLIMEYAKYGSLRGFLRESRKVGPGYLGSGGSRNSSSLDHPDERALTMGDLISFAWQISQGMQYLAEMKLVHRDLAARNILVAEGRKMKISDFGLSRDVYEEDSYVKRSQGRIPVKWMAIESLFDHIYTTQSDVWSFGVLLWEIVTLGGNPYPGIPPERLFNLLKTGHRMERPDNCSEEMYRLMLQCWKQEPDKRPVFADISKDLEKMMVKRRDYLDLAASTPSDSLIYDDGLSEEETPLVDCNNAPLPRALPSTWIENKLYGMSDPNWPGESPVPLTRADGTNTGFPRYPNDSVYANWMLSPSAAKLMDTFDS

MAPKAP-K3(h) = MAPKAP-K3(h) (human, UniProt Q16644 1-382, limits assumed)
MAPKAP-K3(h), sequence (Q16644 whole entry): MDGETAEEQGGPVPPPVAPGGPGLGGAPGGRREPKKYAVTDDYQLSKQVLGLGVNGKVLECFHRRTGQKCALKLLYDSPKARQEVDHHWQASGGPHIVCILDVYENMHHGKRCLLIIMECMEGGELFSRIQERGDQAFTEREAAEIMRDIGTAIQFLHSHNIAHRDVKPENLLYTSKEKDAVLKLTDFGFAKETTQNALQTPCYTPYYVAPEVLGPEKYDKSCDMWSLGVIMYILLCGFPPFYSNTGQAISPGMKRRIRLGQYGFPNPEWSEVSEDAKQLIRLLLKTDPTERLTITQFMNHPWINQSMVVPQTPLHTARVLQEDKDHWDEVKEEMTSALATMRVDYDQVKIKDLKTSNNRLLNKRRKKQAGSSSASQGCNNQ

IGF-1R(h) = IGF-1R(h) (human, UniProt P08069 959-1367, limits assumed)
IGF-1R(h), sequence (P08069 959-1367 limits assumed): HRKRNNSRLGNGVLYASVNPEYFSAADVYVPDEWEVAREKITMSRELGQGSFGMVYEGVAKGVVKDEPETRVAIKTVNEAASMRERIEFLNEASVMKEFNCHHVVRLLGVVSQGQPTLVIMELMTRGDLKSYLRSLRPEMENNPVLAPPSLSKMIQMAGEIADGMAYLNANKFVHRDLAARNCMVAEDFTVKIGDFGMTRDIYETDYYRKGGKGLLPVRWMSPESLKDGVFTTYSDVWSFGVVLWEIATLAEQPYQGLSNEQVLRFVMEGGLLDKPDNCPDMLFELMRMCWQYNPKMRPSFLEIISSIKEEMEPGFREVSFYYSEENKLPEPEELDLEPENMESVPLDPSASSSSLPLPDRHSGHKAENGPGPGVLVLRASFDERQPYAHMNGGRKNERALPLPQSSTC

CK2(h) = CK2(h) (human)
CDK2/cyclinA(h) = CDK2/cyclinA(h) (human, UniProt P24941 1-298; P20248 1-432)
PKBβ(h) = PKBβ(h) (human, UniProt P31751 1-481, limits assumed)
PKBβ(h), sequence (P31751 whole entry): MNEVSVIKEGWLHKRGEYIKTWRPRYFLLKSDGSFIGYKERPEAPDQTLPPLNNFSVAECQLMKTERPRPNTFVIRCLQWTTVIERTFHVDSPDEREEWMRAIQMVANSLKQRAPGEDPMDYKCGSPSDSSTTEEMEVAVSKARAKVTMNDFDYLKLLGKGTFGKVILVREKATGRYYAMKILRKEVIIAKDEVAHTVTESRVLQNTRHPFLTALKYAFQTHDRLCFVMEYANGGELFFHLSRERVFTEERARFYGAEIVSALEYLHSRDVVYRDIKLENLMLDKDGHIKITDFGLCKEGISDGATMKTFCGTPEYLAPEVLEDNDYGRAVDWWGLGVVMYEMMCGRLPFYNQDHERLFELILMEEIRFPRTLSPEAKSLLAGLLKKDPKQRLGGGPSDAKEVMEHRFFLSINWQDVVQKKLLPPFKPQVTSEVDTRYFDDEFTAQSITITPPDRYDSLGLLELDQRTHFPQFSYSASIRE

BRK(h) = BRK(h) (human, UniProt Q13882 1-451, limits assumed)
Flt4(h) = Flt4(h) (human, UniProt P35916 800-1363, limits assumed)
Flt4(h), sequence (P35916 800-1363 limits assumed): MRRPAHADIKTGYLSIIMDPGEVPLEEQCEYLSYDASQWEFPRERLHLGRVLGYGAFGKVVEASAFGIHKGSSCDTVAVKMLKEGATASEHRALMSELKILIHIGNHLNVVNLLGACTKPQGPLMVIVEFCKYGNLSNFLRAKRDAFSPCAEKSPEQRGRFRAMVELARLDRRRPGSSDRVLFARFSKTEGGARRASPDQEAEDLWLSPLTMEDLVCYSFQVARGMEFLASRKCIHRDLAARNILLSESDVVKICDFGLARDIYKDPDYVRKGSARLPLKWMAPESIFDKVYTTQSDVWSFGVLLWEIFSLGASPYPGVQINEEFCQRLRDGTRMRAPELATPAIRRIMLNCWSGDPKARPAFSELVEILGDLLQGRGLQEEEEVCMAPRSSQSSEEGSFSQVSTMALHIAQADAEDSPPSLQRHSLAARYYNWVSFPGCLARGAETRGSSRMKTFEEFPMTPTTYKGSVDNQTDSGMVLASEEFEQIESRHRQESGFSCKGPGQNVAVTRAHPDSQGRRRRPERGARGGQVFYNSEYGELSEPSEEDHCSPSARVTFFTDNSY
Further: test concentration or dose not given here.

KDR(h), sequence (P35968 790-1356 limits assumed): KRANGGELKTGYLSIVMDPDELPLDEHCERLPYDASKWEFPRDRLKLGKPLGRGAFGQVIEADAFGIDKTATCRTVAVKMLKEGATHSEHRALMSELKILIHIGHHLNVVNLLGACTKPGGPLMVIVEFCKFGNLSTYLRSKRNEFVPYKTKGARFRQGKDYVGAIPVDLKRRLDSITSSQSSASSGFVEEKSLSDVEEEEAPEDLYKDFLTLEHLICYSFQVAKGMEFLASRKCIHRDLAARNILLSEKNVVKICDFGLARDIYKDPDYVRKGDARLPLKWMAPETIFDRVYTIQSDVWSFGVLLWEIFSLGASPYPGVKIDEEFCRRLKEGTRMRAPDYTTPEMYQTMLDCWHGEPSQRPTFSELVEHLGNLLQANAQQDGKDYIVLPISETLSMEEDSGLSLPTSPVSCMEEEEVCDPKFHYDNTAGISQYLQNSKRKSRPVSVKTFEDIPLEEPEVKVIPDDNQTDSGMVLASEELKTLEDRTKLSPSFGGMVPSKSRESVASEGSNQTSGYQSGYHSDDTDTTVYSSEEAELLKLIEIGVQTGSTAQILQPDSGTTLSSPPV
CLK3(h), sequence (P49761 whole entry): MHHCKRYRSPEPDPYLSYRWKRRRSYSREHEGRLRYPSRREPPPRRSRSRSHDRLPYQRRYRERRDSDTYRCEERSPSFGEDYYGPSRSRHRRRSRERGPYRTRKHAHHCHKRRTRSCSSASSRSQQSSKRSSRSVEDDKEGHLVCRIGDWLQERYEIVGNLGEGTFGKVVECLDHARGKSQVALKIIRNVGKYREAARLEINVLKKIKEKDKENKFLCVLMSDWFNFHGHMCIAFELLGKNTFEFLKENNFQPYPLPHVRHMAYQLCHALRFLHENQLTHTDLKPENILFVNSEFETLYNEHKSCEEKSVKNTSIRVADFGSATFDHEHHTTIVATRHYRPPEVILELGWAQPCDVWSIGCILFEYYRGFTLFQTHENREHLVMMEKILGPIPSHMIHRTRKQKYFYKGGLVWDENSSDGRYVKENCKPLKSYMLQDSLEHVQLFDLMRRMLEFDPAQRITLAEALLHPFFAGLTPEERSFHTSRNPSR
Lck(h) activated, sequence (P06239 whole entry): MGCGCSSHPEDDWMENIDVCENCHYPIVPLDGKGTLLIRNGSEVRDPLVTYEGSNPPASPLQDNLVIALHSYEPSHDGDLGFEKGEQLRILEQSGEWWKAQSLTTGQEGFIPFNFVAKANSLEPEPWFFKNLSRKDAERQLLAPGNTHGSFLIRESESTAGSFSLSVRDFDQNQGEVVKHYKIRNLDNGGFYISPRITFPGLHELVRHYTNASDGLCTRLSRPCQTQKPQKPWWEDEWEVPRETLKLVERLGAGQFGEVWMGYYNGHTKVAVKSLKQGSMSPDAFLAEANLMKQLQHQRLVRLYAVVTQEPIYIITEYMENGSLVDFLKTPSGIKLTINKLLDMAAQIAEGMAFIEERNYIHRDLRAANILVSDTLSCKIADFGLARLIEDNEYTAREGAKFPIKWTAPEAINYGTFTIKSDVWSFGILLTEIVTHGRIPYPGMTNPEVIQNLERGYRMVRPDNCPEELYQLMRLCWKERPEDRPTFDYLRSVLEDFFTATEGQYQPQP

% activity (CLK3(h)): 84%
% activity (Met(Y1248H)(h)): 63%
% activity (Lck(h) activated): 216%
% activity (KDR(h)): 94%
% activity (mTOR/FKBP12(h)): 125%
% activity (PAK2(h)): 59%
% activity (FAK(h)): 96%
% activity (ARK5(h)): 69%
% activity (GCK(h)): 66%
% activity (Ret(V804M)(h)): 87%
% activity (MAPKAP-K3(h)): 7%
% activity (IGF-1R(h)): 90%
% activity (CK2(h)): 101%
% activity (CDK2/cyclinA(h)): 92%
% activity (PKBβ(h)): 98%
% activity (BRK(h)): 18%
% activity (Flt4(h)): 89%
B1: MMI-0400 (peptide)
peptide: KAFAKLAARLYRKALARQLGVAA

% activity (CLK3(h)): 61%
% activity (Met(Y1248H)(h)): 117%
% activity (Lck(h) activated): 243%
% activity (KDR(h)): 101%
% activity (mTOR/FKBP12(h)): 145%
% activity (PAK2(h)): 65%
% activity (FAK(h)): 111%
% activity (ARK5(h)): 78%
% activity (GCK(h)): 70%
% activity (Ret(V804M)(h)): 95%
% activity (MAPKAP-K3(h)): 3%
% activity (IGF-1R(h)): 119%
% activity (CK2(h)): 90%
% activity (CDK2/cyclinA(h)): 86%
% activity (PKBβ(h)): 84%
% activity (BRK(h)): 35%
% activity (Flt4(h)): 83%
B2: MMI-0300 (peptide)
peptide: FAKLAARLYRKALARQLGVAA
